Target: prefusion conformation-stabilized SARS-CoV-2 spike ectodomain (S2P_(ecto)) with AviTag and 8x-His tag (SARS-CoV-2) (UniProt P0DTC2)
Experiment: ELISA

## COV2-2130 (human mAb, recombinant IgG1) (antibody)
  percent inhibition of hACE2 binding to S2P (ecto) at 500 ng/mL: 100%

Reference: article PMC7584396
